Test [1] addresses pyrene-labelled rabbit skeletal F-actin (rabbit) (UniProt P68135). Nature of the test: other fluorescence titration.
In test [2] the target is RLC-depleted porcine cardiac myosin (porcine) (UniProt P79293). In words: co-sedimentation.

Where a chain is given by its changes, count along the chain named. Names and notes keep the numbering of the source.

Kd and stoichiometry N data for 4 molecules are collected here from paper PMC6589164.

The Kd is the equilibrium constant for the complex coming apart. For orientation: stoichiometry N means a count of units in the complex or per binding partner. In test [1], “A13T-RLC-reconstituted porcine cardiac myosin (from UniProt P79293 1-1935; P10916 1-166) (complex)” yielded a Kd of 24.4 nM and a stoichiometry N of 0.9.

In test [1], “WT-RLC-reconstituted porcine cardiac myosin (from UniProt P79293 1-1935; P10916 1-166) (complex)” displayed a Kd of 18.9 nM and a stoichiometry N of 0.8.

B1: recombinant human cardiac (ventricular) myosin regulatory light chain, wild type (natural protein)
chain: MAPKKAKKRAGGANSNVFSMFEQTQIQEFKEAFTIMDQNRDGFIDKNDLRDTFAALGRVNVKNEEIDEMIKEAPGPINFTVFLTMFGEKLKGADPEETILNAFKVFDPEGKGVLKADYVREMLTTQAERFSKEEVDQMFAAFPPDVTGNLDYKNLVHIITHGEEKD
For the molecule B1, the Kd in test [2] amounted to 2920 nM.

B2: recombinant human cardiac (ventricular) myosin regulatory light chain, A13T mutant (natural protein)
chain: B1 chain with A13T
In test [2], B2 displayed a Kd of 8140 nM.
